A word on the koff: it is the first-order rate constant of dissociation. High values mean a short-lived complex, low ones a long-lived complex. One may read the Kd as the constant that tells how readily two partners part at equilibrium. High values mean lower affinity, low ones higher affinity. In general, IC50 refers to the concentration at which inhibition is half-maximal. High values mean a need for much substance, low ones inhibition by little substance.

For assay [1], the target named is T1, Human ALCAM (28–501)-6xhistidine tag (human, UniProt Q13740 28-501).
T1 chain: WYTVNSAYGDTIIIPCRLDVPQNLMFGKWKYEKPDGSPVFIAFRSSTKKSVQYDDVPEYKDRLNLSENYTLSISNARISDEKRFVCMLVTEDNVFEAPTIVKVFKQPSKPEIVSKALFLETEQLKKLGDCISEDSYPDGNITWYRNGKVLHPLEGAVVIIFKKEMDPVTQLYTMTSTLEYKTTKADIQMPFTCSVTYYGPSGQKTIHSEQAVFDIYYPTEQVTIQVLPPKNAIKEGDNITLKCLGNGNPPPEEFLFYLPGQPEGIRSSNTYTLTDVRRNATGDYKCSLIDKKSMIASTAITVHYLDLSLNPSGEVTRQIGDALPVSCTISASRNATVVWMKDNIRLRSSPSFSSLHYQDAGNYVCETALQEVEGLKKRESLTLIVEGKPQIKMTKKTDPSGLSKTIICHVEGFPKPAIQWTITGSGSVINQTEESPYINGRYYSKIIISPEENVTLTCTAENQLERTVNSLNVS
Briefly: SPR. On the technique in general: Surface plasmon resonance follows binding to a sensor surface in real time, without labels.

Assay [2] deals with T1, Human ALCAM (28–501)-6xhistidine tag. Briefly: SPR.
The target is the same in assay [3]. Kind of assay: ELISA; competition with CD6-Fc. On the technique in general: In an ELISA, binding on a coated surface is turned into a signal by an enzyme label.

B1: scFv IF8 (scFv, V domains shown)
VH: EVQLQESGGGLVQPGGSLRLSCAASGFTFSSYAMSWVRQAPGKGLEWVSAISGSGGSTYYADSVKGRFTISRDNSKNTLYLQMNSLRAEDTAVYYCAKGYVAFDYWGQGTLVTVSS
VL: SSELTQDPAVSVALGQTVRITCQGDSLRSYYASWYQQKPGQAPVLVIYGKNNRPSGIPDRFSGSSSGNTASLTITGAQAEDEADYYCNSSPPFSAEVVFGGGTKLTVL
In turn, B1 had a koff in assay [1] of 0.00114 s⁻¹.

B2: scFv V200G1 (scFv, V domains shown)
VH: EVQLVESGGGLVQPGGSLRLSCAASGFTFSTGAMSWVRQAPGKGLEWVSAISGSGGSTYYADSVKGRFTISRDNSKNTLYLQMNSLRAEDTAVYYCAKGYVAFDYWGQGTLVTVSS
VL: SSVLTQPPSVSVAPGQTARITCQGDSLRSGYASWYQQKPGQAPVLVVYGKTGRPSGIPERFSGSSSGNTATLTISRVEAGDEADYYCNSSPPFSAEVVFGGGTKLTVL
B2: in assay [2], binding was put at a Kd of 2.52 nM. Further, in assay [3], the IC50 is 31.3 nM.

B3: scFv V20C10NC (scFv, V domains shown)
VH: EVQLVESGGGLVQPGGSLRLSCAASGFTFSTGAMSWVRQAPGKGLEWVSAISGTGGTTYYADSVKGRFTISRDNSKNTLYLQMNSLRAEDTAVYYCAKGYVAFDYWGQGTLVTVSS
VL: SSVLTQPPSVSVAPGQTARITCQGDSLRSGYASWYQQKPGQAPVLVVYPKMSRPSGIPERFSGSSSGNTATLTISRVEAGDEADYYCNSSPPFSAEVVFGGGTKLTVL
B3 registered a koff in assay [1] of 9.12e-05 s⁻¹. The same molecule showed a Kd in assay [2] of 5.08 nM. The molecule also displayed an IC50 in assay [3] of 29.2 nM.

B4: scFv V2D7 (scFv, V domains shown)
VH: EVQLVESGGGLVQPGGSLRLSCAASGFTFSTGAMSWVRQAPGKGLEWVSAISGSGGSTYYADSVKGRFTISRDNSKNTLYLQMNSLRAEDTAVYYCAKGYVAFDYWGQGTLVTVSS
VL: SSVLTQPPSVSVAPGQTARITCQGDSLRSGYASWYQQKPGQAPVLVVYGKNNRPSGIPERFSGSSSGNTATLTISRVEAGDEADYYCNSSPPFSAEVVFGGGTKLTVL
As for B4, the koff in assay [1] was determined as 0.000127 s⁻¹. Further, in assay [2], the Kd was found to be 2.62 nM.

B5: scFv OPT (scFv, V domains shown)
VH: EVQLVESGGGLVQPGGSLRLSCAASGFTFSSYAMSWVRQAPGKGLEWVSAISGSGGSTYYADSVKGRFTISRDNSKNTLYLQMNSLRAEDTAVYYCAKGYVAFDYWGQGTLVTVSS
VL: SSVLTQPPSVSVAPGQTARITCQGDSLRSYYASWYQQKPGQAPVLVVYGKNNRPSGIPERFSGSSSGNTATLTISRVEAGDEADYYCNSSPPFSAEVVFGGGTKLTVL
With B5, the koff in assay [1] is 0.0011 s⁻¹. The same molecule yielded a Kd in assay [2] of 12.7 nM. Besides, the IC50 in assay [3] turned out to be 69.2 nM.

Source of the values: publication PMC10385607 (2023).
